Reference: paper PMC9482650, “Quantitative fragmentomics allow affinity mapping of interactomes” (Nature Communications, 2022)

Key:
Test in all cases: holdup assay
Parameters in all cases: key: below the threshold = too weak to quantify, mostly under pKd 3.1 to 4
Settings in all cases: plain residues with an end cap or a label only (N-terminal biotin on a linker: ado-ado)
LRRC7, Q96NW7 = molecular target: T1, LRRC7, Q96NW7
T1 sequence (Q96NW7 1440-1537, limits assumed, looked up): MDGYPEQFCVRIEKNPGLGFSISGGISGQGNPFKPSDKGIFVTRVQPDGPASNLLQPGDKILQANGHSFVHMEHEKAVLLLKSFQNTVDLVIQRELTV

TIAM2, Q8IVF5 = molecular target: T2, TIAM2, Q8IVF5
T2 sequence (Q8IVF5 885-986, limits assumed, looked up): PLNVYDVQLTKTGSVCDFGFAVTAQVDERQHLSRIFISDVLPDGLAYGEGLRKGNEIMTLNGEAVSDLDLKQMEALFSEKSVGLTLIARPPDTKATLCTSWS

NHERF3_1, Q5T2W1 = molecular target: T3, NHERF3_1, Q5T2W1
T3 sequence (Q5T2W1 4-100, limits assumed, looked up): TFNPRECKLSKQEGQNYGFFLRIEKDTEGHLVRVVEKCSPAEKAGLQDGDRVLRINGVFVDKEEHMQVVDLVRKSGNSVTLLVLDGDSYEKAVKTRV

Inadl_3, Q8NI35 = molecular target: Inadl_3, Q8NI35
MAST1, Q9Y2H9 = molecular target: MAST1, Q9Y2H9
HTRA4, P83105 = molecular target: T4, HTRA4, P83105
T4 sequence (P83105 378-476, limits assumed, looked up): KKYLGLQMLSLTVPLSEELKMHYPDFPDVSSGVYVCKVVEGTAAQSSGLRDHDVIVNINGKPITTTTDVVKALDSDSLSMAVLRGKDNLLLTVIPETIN

TJP3_3, O95049 = molecular target: T5, TJP3_3, O95049
T5 sequence (O95049 375-456, limits assumed, looked up): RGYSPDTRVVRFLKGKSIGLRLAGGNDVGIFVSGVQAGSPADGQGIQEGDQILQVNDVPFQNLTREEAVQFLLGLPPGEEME

DLG1_1, Q12959 = molecular target: DLG1_1, Q12959
DLG1_3, Q12959 = molecular target: DLG1_3, Q12959
GRIP1_5, Q9Y3R0 = molecular target: T6, GRIP1_5, Q9Y3R0
T6 sequence (Q9Y3R0 568-668, limits assumed, looked up): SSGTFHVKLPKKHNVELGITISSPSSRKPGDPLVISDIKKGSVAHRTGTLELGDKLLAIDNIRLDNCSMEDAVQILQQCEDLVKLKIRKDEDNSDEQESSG

SCRIB_1, Q14160 = molecular target: SCRIB_1, Q14160
DFNB31_1, Q9P202 = molecular target: T7, DFNB31_1, Q9P202
T7 sequence (Q9P202 135-233, limits assumed, looked up): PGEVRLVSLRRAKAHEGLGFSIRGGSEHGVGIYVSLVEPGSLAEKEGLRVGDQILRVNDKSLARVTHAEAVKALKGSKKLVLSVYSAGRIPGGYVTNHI

GRIP2_6, Q9C0E4 = molecular target: GRIP2_6, Q9C0E4
CASK, O14936 = molecular target: CASK, O14936
DLG1_2, Q12959 = molecular target: DLG1_2, Q12959
APBA1_2, Q02410 = molecular target: T8, APBA1_2, Q02410
T8 sequence (Q02410 742-832, limits assumed, looked up): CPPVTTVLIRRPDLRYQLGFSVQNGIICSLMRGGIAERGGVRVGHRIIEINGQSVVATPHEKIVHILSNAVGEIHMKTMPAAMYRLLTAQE

LNX2_3, Q8N448 = molecular target: T9, LNX2_3, Q8N448
T9 sequence (Q8N448 463-564, limits assumed, looked up): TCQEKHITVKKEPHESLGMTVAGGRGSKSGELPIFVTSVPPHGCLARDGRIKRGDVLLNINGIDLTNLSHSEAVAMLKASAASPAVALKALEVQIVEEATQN

MAGI2_6, Q86UL8 = molecular target: MAGI2_6, Q86UL8
NHERF4_2, Q86UT5 = molecular target: NHERF4_2, Q86UT5
PDZD7_3, Q9H5P4 = molecular target: T10, PDZD7_3, Q9H5P4
T10 sequence (Q9H5P4 857-944, limits assumed, looked up): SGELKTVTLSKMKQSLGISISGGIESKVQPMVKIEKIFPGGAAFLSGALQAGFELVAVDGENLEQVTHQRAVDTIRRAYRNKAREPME

SIPA1L2, Q9P2F8 = molecular target: T11, SIPA1L2, Q9P2F8
T11 sequence (Q9P2F8 945-1036, limits assumed, looked up): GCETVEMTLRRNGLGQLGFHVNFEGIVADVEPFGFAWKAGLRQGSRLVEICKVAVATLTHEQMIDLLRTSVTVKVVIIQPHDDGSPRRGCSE

DFNB31_2, Q9P202 = molecular target: T12, DFNB31_2, Q9P202
T12 sequence (Q9P202 274-371, limits assumed, looked up): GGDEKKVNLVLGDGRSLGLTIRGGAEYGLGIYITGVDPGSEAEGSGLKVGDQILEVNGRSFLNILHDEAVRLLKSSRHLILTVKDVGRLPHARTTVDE

NHERF2_2, Q15599 = molecular target: NHERF2_2, Q15599
APBA2_1, Q99767 = molecular target: T13, APBA2_1, Q99767
T13 sequence (Q99767 563-664, limits assumed, looked up): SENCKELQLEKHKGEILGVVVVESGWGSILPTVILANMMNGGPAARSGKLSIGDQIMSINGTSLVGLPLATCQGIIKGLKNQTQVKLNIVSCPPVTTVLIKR

GIPC2, Q8TF65 = molecular target: GIPC2, Q8TF65

Measured: pKd

Chain of GIPC2, Q8TF65 (Q8TF65 112-203): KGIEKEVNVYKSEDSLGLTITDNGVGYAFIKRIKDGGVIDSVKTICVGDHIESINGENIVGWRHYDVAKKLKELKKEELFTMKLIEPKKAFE
Chain of MAGI2_6, Q86UL8 (Q86UL8 1141-1229): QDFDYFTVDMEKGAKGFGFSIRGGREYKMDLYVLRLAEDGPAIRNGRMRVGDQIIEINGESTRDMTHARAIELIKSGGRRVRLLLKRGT
Chain of MAST1, Q9Y2H9 (Q9Y2H9 962-1065): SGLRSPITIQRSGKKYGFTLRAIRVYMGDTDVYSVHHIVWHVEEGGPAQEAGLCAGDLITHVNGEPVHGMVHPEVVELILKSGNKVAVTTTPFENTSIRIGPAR
Chain of Inadl_3, Q8NI35 (Q8NI35 359-469): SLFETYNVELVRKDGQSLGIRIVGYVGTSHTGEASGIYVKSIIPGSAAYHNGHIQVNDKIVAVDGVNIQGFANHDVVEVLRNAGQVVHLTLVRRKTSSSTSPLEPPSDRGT
Chain of SCRIB_1, Q14160 (Q14160 718-814): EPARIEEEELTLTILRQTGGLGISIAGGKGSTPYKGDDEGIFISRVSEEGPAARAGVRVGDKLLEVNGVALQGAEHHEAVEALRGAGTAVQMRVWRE
Chain of CASK, O14936 (O14936 487-570): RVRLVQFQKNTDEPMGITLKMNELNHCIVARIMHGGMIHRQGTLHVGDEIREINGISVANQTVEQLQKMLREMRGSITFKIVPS
Chain of GRIP2_6, Q9C0E4 (Q9C0E4 648-740): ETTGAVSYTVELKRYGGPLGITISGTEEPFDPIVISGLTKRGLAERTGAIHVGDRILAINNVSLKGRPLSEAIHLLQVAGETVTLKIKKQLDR
Chain of NHERF2_2, Q15599 (Q15599 142-238): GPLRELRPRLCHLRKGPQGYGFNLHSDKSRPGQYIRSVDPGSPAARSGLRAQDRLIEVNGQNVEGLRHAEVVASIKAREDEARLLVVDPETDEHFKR
Chain of NHERF4_2, Q86UT5 (Q86UT5 220-308): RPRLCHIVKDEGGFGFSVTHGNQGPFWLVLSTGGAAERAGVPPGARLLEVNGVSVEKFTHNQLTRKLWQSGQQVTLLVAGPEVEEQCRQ

WRSKRTDTLL [RAMP3, O60896]
3.84: MAST1, Q9Y2H9 | DLG1_1, Q12959
3.69: MAGI2_6, Q86UL8
3.74: DFNB31_1, Q9P202
3.92: SCRIB_1, Q14160
4.05: NHERF2_2, Q15599
3.99: PDZD7_3, Q9H5P4
5.16: NHERF3_1, Q5T2W1
4.29: DLG1_2, Q12959
below the threshold: all other assays above

FEEEAEEEVA [TUBB4B, P68371]
3.74: TIAM2, Q8IVF5
below the threshold: all other assays above

PDGEMMEVLI [AMOTL1, Q8IY63]
4.05: NHERF3_1, Q5T2W1
3.71: MAST1, Q9Y2H9
3.75: HTRA4, P83105
3.47: GRIP2_6, Q9C0E4
3.86: TIAM2, Q8IVF5
5.08: Inadl_3, Q8NI35
below the threshold: all other assays above

VISERNSTTV [C3AR1, Q16581]
3.49: MAGI2_6, Q86UL8
4.72: DLG1_2, Q12959
4.11: HTRA4, P83105
4.44: DLG1_1, Q12959
3.72: SCRIB_1, Q14160
4.41: PDZD7_3, Q9H5P4
3.82: NHERF2_2, Q15599
3.74: MAST1, Q9Y2H9
below the threshold: all other assays above
